Measurements from article PMC7242751, “Novel ssDNA Ligand Against Ovarian Cancer Biomarker CA125 With Promising Diagnostic Potential”.

Molecular target: CA125 (native antigen) (human, UniProt Q8WXI7 1-14451)
Assay: nitrocellulose membrane binding, elution and nanodrop quantification; CA125 20 U/mL immobilized; 1 mM Mg2+ in binding buffer; SELEX binding buffer 10 mM PBS, 1 mM MgCl2, 0.01% herring sperm DNA, 25 C; KD in binding buffer (composition not restated), 2 h at RT; pH not stated
Settings: protein: native

Binder | Kd [nM]
Apt 2.26 (ssDNA) DNA: TAGGGAAGAGAAGGACATATGATTTTAGGGAAGAGAAGGACTTTTATGCCGCCTTGACTAGTACATGACCACTTGA | 166
Apt 2.43 (ssDNA) DNA: TAGGGAAGAGAAGGACATATGATGATCAACAACACAAGGGGGGGGGTATCTAGTTGACTAGTACATGACCACTTGA | 239
